The source of these data is patent US6379959.

The target in this assay is T1, carboxypeptidase A.
T1 sequence (P00730 111-419, species assumed, looked up): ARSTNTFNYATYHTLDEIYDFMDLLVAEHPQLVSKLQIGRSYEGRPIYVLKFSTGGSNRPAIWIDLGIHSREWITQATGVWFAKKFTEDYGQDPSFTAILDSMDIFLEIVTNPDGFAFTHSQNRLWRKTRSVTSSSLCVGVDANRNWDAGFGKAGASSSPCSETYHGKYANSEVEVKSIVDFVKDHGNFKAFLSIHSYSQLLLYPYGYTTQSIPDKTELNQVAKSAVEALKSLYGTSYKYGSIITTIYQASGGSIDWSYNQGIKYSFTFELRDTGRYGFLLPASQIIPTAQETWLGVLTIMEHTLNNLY
Nature of the assay: carboxypeptidase inhibition (Ki); reference wild PCI.

The molecule EQHADPICNKPCKTHDDCSGAWFCQACWNSARTCGP [PCIdelY37V38G39] had a decrease of the inhibitory capacity against the wild form (orders of magnitude) of 3.
